Laboratory results from patent publication US6893829B2, “Human leukocyte 12-lipoxygenase and its role in the pathogenesis of disease states” (City of Hope, priority 1992, dated 2005).

How the values were obtained:
[1] = test system: VEGF protein in MCF-7 cells; assay: VEGF protein expression in breast cancer cells (immunoblot); type: cell-based, human; details: MCF-7, 24 hours
Protocol: FIG. 8 illustrates the dose-dependent effect of platelet-derived growth factor (PDGF) on vascular endothelial growth factor (VEGF) protein (42 kD) expression in MCF-7 breast cancer cells. Nearly confluent MCF-7 cells were serum starved for 24 hours by placing in DME medium+0.4% FCS and 0.2% BSA. This medium was then freshly replaced and the cells incubated for another 24 hours with PDGF. At the end of the incubation, the cell monolayers were washed with ice-cold PBS, scraped into PBS and pelleted by centrifugation. The cell pellets were then lysed and equal amounts of protein (50 μg) subjected to electrophoresis and immunoblotting to detect VEGF using a specific antibody from Santa Cruz Biotechnology. Detection was by a chemiluminiscent technique.
FIG. 9 illustrates the effect of epidermal growth factor (EGF) and the 12-lipoxygenase product 12-HETE on VEGF protein expression in the MCF-7 breast cancer cell line MCF-7. MCF-7 cells were treated with EGF and 12-HETE for 24 hours and VEGF protein identified as described in the legend to FIG. 8.

[2] = test system: 12-LO activity in MCF-7 cells; assay: 12-HETE formation in MCF-7 cells; details: four hours, basal 257±10 pg/10^6 cells
[3] = test system: leukocyte-type 12-LO in MCF-7 cells; assay: 12-LO protein and mRNA expression in MCF-7 cells; details: EGF 50 ng/ml, 24 hours

B1: EGF: Epidermal Growth Factor (protein, UniProt P01133 23-1207, looked up)
Pro-epidermal growth factor: PQHWSCPEGTLAGNGNSTCVGPAPFLIFSHGNSIFRIDTEGTNYEQLVVDAGVSVIMDFHYNEKRIYWVDLERQLLQRVFLNGSRQERVCNIEKNVSGMAINWINEEVIWSNQQEGIITVTDMKGNNSHILLSALKYPANVAVDPVERFIFWSSEVAGSLYRADLDGVGVKALLETSEKITAVSLDVLDKRLFWIQYNREGSNSLICSCDYDGGSVHISKHPTQHNLFAMSLFGDRIFYSTWKMKTIWIANKHTGKDMVRINLHSSFVPLGELKVVHPLAQPKAEDDTWEPEQKLCKLRKGNCSSTVCGQDLQSHLCMCAEGYALSRDRKYCEDVNECAFWNHGCTLGCKNTPGSYYCTCPVGFVLLPDGKRCHQLVSCPRNVSECSHDCVLTSEGPLCFCPEGSVLERDGKTCSGCSSPDNGGCSQLCVPLSPVSWECDCFPGYDLQLDEKSCAASGPQPFLLFANSQDIRHMHFDGTDYGTLLSQQMGMVYALDHDPVENKIYFAHTALKWIERANMDGSQRERLIEEGVDVPEGLAVDWIGRRFYWTDRGKSLIGRSDLNGKRSKIITKENISQPRGIAVHPMAKRLFWTDTGINPRIESSSLQGLGRLVIASSDLIWPSGITIDFLTDKLYWCDAKQSVIEMANLDGSKRRRLTQNDVGHPFAVAVFEDYVWFSDWAMPSVMRVNKRTGKDRVRLQGSMLKPSSLVVVHPLAKPGADPCLYQNGGCEHICKKRLGTAWCSCREGFMKASDGKTCLALDGHQLLAGGEVDLKNQVTPLDILSKTRVSEDNITESQHMLVAEIMVSDQDDCAPVGCSMYARCISEGEDATCQCLKGFAGDGKLCSDIDECEMGVPVCPPASSKCINTEGGYVCRCSEGYQGDGIHCLDIDECQLGEHSCGENASCTNTEGGYTCMCAGRLSEPGLICPDSTPPPHLREDDHHYSVRNSDSECPLSHDGYCLHDGVCMYIEALDKYACNCVVGYIGERCQYRDLKWWELRHAGHGQQQKVIVVAVCVVVLVMLLLLSLWGAHYYRTQKLLSKNPKNPYEESSRDVRSRRPADTEDGMSSCPQPWFVVIKEHQDLKNGGQPVAGEDGQAADGSMQPTSWRQEPQLCGMGTEQGCWIPVSSDKGSCPQVMERSFHMPSYGTQTLEGGVEKPHSLLSANPLWQQRALDPPHQMELTQ
modifications: Pro-epidermal growth factor
VEGF protein expression [1]: induced | formation of 12-HETE ([2]; serum-starved MCF-7, EGF 50 ng/ml): 462 ± 15 pg | formation of 12-HETE ([2]; serum-starved MCF-7, EGF 100 ng/ml): 593 ± 46 pg | levels of 12-LO protein (72 kD) and 12-LO mRNA [3]: marked increase
